Where “and” joins values, the source holds several entries; their conditions need not be identical. Equal entries are not always repeated.
T1: C. elegans FBF-2 RBD+CT (residues 164–632) (C. elegans, UniProt Q09312 164-632)
T1 sequence (looked up): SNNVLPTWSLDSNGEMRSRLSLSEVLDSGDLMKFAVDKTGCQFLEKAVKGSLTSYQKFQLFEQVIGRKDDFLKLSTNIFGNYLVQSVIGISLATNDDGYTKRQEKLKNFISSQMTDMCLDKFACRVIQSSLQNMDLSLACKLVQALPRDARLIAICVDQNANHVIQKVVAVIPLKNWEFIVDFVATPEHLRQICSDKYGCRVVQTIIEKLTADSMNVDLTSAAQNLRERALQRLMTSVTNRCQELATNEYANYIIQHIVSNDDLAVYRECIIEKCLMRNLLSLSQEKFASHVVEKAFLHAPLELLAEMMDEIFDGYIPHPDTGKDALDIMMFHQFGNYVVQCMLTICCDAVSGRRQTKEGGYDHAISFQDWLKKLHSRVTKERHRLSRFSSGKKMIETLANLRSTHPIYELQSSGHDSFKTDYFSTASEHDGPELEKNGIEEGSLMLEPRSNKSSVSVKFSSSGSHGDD

T2: FBF-2 RBD protein (residue 164–575) (C. elegans, UniProt Q09312 164-575)
T2 construct: Tag cleaved with TEV protease (construct derived from an earlier pGEX6p FBF-2 RBD construct); source: E. coli, purified (as FBF-2 RBD+CT); for SEC-MALS and cryo-EM coexpressed with GST-fused LST-1^19-98 and purified as a complex
T2 sequence (looked up): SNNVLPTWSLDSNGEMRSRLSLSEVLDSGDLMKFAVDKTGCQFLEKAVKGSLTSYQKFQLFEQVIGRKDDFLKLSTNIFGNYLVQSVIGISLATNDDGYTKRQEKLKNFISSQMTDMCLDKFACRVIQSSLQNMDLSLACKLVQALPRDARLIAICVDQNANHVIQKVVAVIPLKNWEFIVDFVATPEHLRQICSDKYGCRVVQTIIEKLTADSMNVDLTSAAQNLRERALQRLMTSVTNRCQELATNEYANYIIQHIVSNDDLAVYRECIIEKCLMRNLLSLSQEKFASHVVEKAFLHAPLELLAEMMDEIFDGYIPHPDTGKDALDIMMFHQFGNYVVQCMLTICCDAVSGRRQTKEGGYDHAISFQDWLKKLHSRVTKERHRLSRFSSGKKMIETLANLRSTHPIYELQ


Key:
[1] = molecular target: T1, C. elegans FBF-2 RBD+CT (residues …); test: cell-based or functional assay
[2] = molecular target: T1, C. elegans FBF-2 RBD+CT (residues …); test: ITC; LST-1 (100–400 μM) titrated from the syringe into the cell containing FBF-2 (10–30 μM); 20 °C; 20 mM HEPES pH 7.4, 150 mM NaCl, 0.5 mM TCEP; no RNA; one-site model; two technical replicates; conditions: both partners purified
[3] = molecular target: T2, FBF-2 RBD protein (residue 164–575); test: as above; conditions: both partners purified
[4] = molecular target: T1, C. elegans FBF-2 RBD+CT (residues …); test: SEC-MALS; purified FBF-2 RBD+CT or RBD/LST-1^19-98 protein (~30 μM) with 29-nt gld-1 FBEa-FBEa* RNA; Superdex-200 10/300 GL; 20 mM HEPES pH 7.4, 150 mM NaCl, 2 mM DTT; conditions: both partners purified
[5] = molecular target: T2, FBF-2 RBD protein (residue 164–575); test: as above; conditions: both partners purified
[6] = molecular target: T2, FBF-2 RBD protein (residue 164–575); test: FRET or BRET; 2 μM unlabeled FBF-2 RBD pre-incubated with Cy5-labeled LST-1^19-98 (20, 40, 80 nM), then 20 nM 5′-Cy3-labeled gld-1 FBEa-FBEa* RNA; room temperature; FRET from Cy3 in the RNA to Cy5 in LST-1; conditions: both partners purified

| EMSA: RNA-binding affinity of FBF-2 RBD+CT for gld-1 FBEa-FBEa* RNA with 10 μM LST-1^19-98 against without LST-1 [1] [fold] | Kd [2] | dH [2] | stoichiometry N [2] | Kd [3] | dH [3] | stoichiometry N [3] | stoichiometry N [4] [FBF-2 per LST-1] | stoichiometry N [5] [FBF-2 per LST-1] | binding result [6] | Binder |
| --- | --- | --- | --- | --- | --- | --- | --- | --- | --- | --- |
| – | – | – | – | – | – | – | 2 | 2 | – | LST-1^19-98 from the GST fusion coexpressed with FBF-2 (domain or fragment, C. elegans, UniProt P91820 19-98, looked up, LST-1, C. elegans, residues 19–98; GST cleaved off with TEV protease; also called GST-LST-1^19-98) STIAYSKSQHEAPKQLLQLRSEIKPLIPLNQPSNFWESSQDSGVLSSLSSSPQQRSGLRSQKLHLTYIEKNKRVRAMIPQ |
| – | 3700 nM and 2800 nM | -11.4 kcal/mol and -11.5 kcal/mol | 1.02 sites and 0.98 sites | 130 nM and 120 nM | -15.3 kcal/mol and -16.5 kcal/mol | 1.15 sites and 1.05 sites | – | – | – | LST-1^19-98(A^m) (domain or fragment, C. elegans, UniProt P91820 19-98, looked up, LST-1, C. elegans, residues 19–98, PIM-A mutated, PIM-B intact; also called LST-1 A^m; K32A/L35A double mutant in PIM-A; source: E. coli, purified (same protocol as for WT protein)) STIAYSKSQHEAPAQLAQLRSEIKPLIPLNQPSNFWESSQDSGVLSSLSSSPQQRSGLRSQKLHLTYIEKNKRVRAMIPQ |
| – | 24100 nM and 46200 nM | -11.1 kcal/mol and -11.5 kcal/mol | 1.06 sites and 0.89 sites | 1460 nM and 1540 nM | -12.1 kcal/mol and -12.5 kcal/mol | 0.83 sites and 0.86 sites | – | – | – | LST-1^19-98(B^m) (domain or fragment, C. elegans, UniProt P91820 19-98, looked up, LST-1, C. elegans, residues 19–98, PIM-B mutated, PIM-A intact; also called LST-1 B^m; K80A/L83A/Y85A triple mutant in PIM-B; source: E. coli, purified (same protocol as for WT protein)) STIAYSKSQHEAPKQLLQLRSEIKPLIPLNQPSNFWESSQDSGVLSSLSSSPQQRSGLRSQALHATAIEKNKRVRAMIPQ |

Further lines, the binder ahead of its results:

| Binder | EMSA: RNA-binding affinity of FBF-2 RBD+CT for gld-1 FBEa-FBEa* RNA with 10 μM LST-1^19-98 against without LST-1 [1] [fold] | Kd [2] | dH [2] | stoichiometry N [2] | Kd [3] | dH [3] | stoichiometry N [3] | stoichiometry N [4] [FBF-2 per LST-1] | stoichiometry N [5] [FBF-2 per LST-1] | binding result [6] |
| --- | --- | --- | --- | --- | --- | --- | --- | --- | --- | --- |
| LST-1^19-98 (LST-1 residues 19–98, spanning PIM-A and PIM-B) (domain or fragment, C. elegans, UniProt P91820 19-98, looked up, LST-1, C. elegans, residues 19–98 of the N-terminal intrinsically disordered region, with PIM-A and PIM-B; Codon-optimized synthetic cDNA in the pSMT3 vector; tag removed with Ulp1; also called LST-1 peptide (residues 19–98); source: E. coli BL21-CodonPlus (DE3)-RIL, purified (Ni-NTA, heparin, Ni-NTA pass, Superdex 75)) STIAYSKSQHEAPKQLLQLRSEIKPLIPLNQPSNFWESSQDSGVLSSLSSSPQQRSGLRSQKLHLTYIEKNKRVRAMIPQ | 4 | 1100 nM and 1900 nM | -14.8 kcal/mol and -10.8 kcal/mol | 0.5 sites and 0.57 sites | 480 nM and 520 nM | -33.2 kcal/mol and -37.5 kcal/mol | 0.46 sites | – | – | – |
| C26-labeled LST-1^19-98 (S26C, Cy5) (domain or fragment, C. elegans, UniProt P91820 19-98, looked up, Cy5 on C26 via cysteine-maleimide conjugation, LST-1, C. elegans, residues 19–98, cysteine in place of S26, five residues upstream of PIM-A; Probably made like wild-type LST-1^19-98 (His6-SUMO, cleaved); source: purified) STIAYSKCQHEAPKQLLQLRSEIKPLIPLNQPSNFWESSQDSGVLSSLSSSPQQRSGLRSQKLHLTYIEKNKRVRAMIPQ | – | – | – | – | – | – | – | – | – | binds |
| C74-labeled LST-1^19-98 (S74C, Cy5) (domain or fragment, C. elegans, UniProt P91820 19-98, looked up, Cy5 on C74 via cysteine-maleimide conjugation, LST-1, C. elegans, residues 19–98, cysteine in place of S74, five residues upstream of PIM-B; Probably made like wild-type LST-1^19-98 (His6-SUMO, cleaved); source: purified) STIAYSKSQHEAPKQLLQLRSEIKPLIPLNQPSNFWESSQDSGVLSSLSSSPQQRCGLRSQKLHLTYIEKNKRVRAMIPQ | – | – | – | – | – | – | – | – | – | binds |
